Source: paper PMC10381965 (2022)

Target: CENP-ΔQU complex (CENP-Q^1–294 and CENP-U^30–266) (S. cerevisiae, UniProt P53298 1-294; P38313 30-266)
Test: ITC

| Binder | Kd |
| --- | --- |
| Ac-AGDQQSINDAALSLLQRTRATKNW-NH2 [CENP-A^END-2-R37A peptide] | 9.67 µM |
| Ac-AGDQQSINDRALSLLQRTRATKNW-NH2 [CENP-A^END-2 peptide] | 0.66 µM |
